Here are results for nine molecules from article PMC8497518, “ssDNA recombineering boosts in vivo evolution of nanobodies displayed on bacterial surfaces” (Communications Biology, 2021).

Experiment [1] concerns the target TirM^EPEC, extracellular domain of the translocated intimin receptor (Tir) of enteropathogenic E. coli (enteropathogenic E. coli (EPEC)). The experiment in a line: SEC; purified TirM^EPEC in solution, size exclusion chromatography. A general note: SEC sorts molecules by how far they enter the pores of the column.
Experiment [2] addresses T1, TirM^EHEC, extracellular domain of the translocated intimin receptor (Tir) of enterohaemorrhagic E. coli (Escherichia coli EHEC; strain not …, UniProt Q7DB77, biotin (NHS-biotin, biotin:protein 20:1) for flow cytometry and MACS).
T1 construct: Translocated intimin receptor Tir of enterohaemorrhagic E. coli (EHEC), extracellular TirM domain; also called EHEC TirM; former antigen
The experiment in a line: flow cytometry on cells; E. coli displaying the intimin-Nb fusion (multivalent) incubated 90 min at 4 °C in PBS with biotinylated antigen (0-250 nM TirM^EPEC or 0-50 nM TirM^EHEC), stained with streptavidin-allophycocyanin; median fluorescence fitted to one-site specific binding; apparent KD. The settings on record: one partner purified.

The target in experiment [3] is T2, TirM^EPEC, extracellular domain of the translocated intimin receptor (Tir) of enteropathogenic E. coli (Escherichia coli EPEC; strain not …, UniProt B7UM99, biotin (NHS-biotin, biotin:protein 20:1) for flow cytometry and MACS).
T2 construct: Translocated intimin receptor Tir of enteropathogenic E. coli (EPEC), extracellular TirM domain; also called EPEC TirM; new antigen
As to the kind of experiment: ELISA; Maxisorp plates coated with His-tagged TirM at 10 ug/mL in PBS; purified monovalent Nb in 3% skimmed milk in PBS, 0-100 nM (TD4) or 0-400 nM (mutants), 90 min at 23 °C; detected with anti-E-tag; one-site specific binding fit; apparent KD. As to conditions: both partners purified. A general note: ELISA stands for enzyme-linked immunosorbent assay.
Target sequence in this assay (B7UM99 255-362): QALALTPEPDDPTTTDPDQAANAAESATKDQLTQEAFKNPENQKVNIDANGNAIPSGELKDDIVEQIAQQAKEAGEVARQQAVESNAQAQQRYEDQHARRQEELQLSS

The target in experiment [4] is T1, TirM^EHEC, extracellular domain of the …. Described as above. The settings on record: both partners purified.
Target sequence in this assay (Q7DB77 252-362): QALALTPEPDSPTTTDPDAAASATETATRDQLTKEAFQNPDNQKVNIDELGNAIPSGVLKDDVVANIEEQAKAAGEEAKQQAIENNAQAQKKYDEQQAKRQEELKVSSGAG
Experiment [5] addresses T2, TirM^EPEC, extracellular domain of the …. As to the kind of experiment: flow cytometry on cells; E. coli displaying the intimin-Nb fusion (multivalent) incubated 90 min at 4 °C in PBS with biotinylated antigen (0-250 nM TirM^EPEC or 0-50 nM TirM^EHEC), stained with streptavidin-allophycocyanin; median fluorescence fitted to one-site specific binding; apparent KD. The settings on record: one partner purified. (In flow cytometry, cells or beads pass a laser one at a time.)

Experiment [6] has the same target. As to the kind of experiment: ELISA; Maxisorp plates coated with His-tagged TirM at 10 ug/mL in PBS; purified monovalent Nb in 3% skimmed milk in PBS, 0-100 nM (TD4) or 0-400 nM (mutants), 90 min at 23 °C; detected with anti-E-tag; one-site specific binding fit; apparent KD. The settings on record: both partners purified. This is another data set of the same source.
Target sequence in this assay (B7UM99 255-362): as the sequence (B7UM99 255-362) above

One may read the stoichiometry N as a count of units in the complex or per binding partner. “TirM^EPEC, extracellular domain of the translocated intimin receptor (Tir) of enteropathogenic E. coli (domain or fragment)” gave a stoichiometry N in experiment [1] of 2.

B1: Nb TD4 displayed on E. coli as a fusion to the outer membrane anchoring domain of intimin (VHH)
VHH: QVQLVDAGGGSVQAGGSLTLSCVASGAAYSTNLLGWFRQAPGKEREGVASIYRGNSATNYADSVKGRFTISQDKTKYTIYLQMNSLKPEDSAMYYCAHGTAPYWHTPIPTLSEDKYFYWGQGTQVTVSS
notes: VHH TD4; multivalent on the bacterial surface; also called parental Nb; non-evolved TD4; not shown: intimin outer membrane anchoring domain, N-terminal, kept
For the molecule B1, the Kd in experiment [2] was 0.41 nM.

B2: Nb TD4^T108R, secreted His6-tagged VHH-HlyA fusion (monovalent, purified) (VHH)
VHH: QVQLVDAGGGSVQAGGSLTLSCVASGAAYSTNLLGWFRQAPGKEREGVASIYRGNSATNYADSVKGRFTISQDKTKYTIYLQMNSLKPEDSAMYYCAHGTAPYWHRPIPTLSEDKYFYWGQGTQVTVSS
notes: as the VHH of m7 with T108R; also called Nb T108R
In the case of B2, the Kd in experiment [3] was 176 nM; in experiment [4] it was 4.61 nM.

B3: Nb TD4^H107Y displayed on E. coli as a fusion to the outer membrane anchoring domain of intimin (VHH)
VHH: QVQLVDAGGGSVQAGGSLTLSCVASGAAYSTNLLGWFRQAPGKEREGVASIYRGNSATNYADSVKGRFTISQDKTKYTIYLQMNSLKPEDSAMYYCAHGTAPYWYTPIPTLSEDKYFYWGQGTQVTVSS
notes: as the VHH of m3 with H107Y (CDR3); Evolved from TD4 by DIvERGE mutagenesis and MACS selection; also called Nb H107Y; not shown: intimin outer membrane anchoring domain, N-terminal, kept
Consider B3, for which the Kd in experiment [5] was 33.9 nM; in experiment [2], 0.57 nM.

B4: Nb TD4^T108R displayed on E. coli as a fusion to the outer membrane anchoring domain of intimin (VHH)
VHH: QVQLVDAGGGSVQAGGSLTLSCVASGAAYSTNLLGWFRQAPGKEREGVASIYRGNSATNYADSVKGRFTISQDKTKYTIYLQMNSLKPEDSAMYYCAHGTAPYWHRPIPTLSEDKYFYWGQGTQVTVSS
notes: as the VHH of m3 with T108R (CDR3); Evolved from TD4 by DIvERGE mutagenesis and MACS selection; also called Nb T108R; not shown: intimin outer membrane anchoring domain, N-terminal, kept
For the molecule B4, the values for the Kd in experiment [5] and in experiment [2] were 27.6 nM and 0.36 nM, respectively.

B5: Nb TD4^H107Y, secreted His6-tagged VHH-HlyA fusion (monovalent, purified) (VHH)
VHH: QVQLVDAGGGSVQAGGSLTLSCVASGAAYSTNLLGWFRQAPGKEREGVASIYRGNSATNYADSVKGRFTISQDKTKYTIYLQMNSLKPEDSAMYYCAHGTAPYWYTPIPTLSEDKYFYWGQGTQVTVSS
notes: as the VHH of m7 with H107Y; also called Nb H107Y
Take B5: the Kd in experiment [6] was 20.8 ± 2.31 nM; in experiment [3], 20.1 nM; in experiment [4] it was 47.7 nM.

B6: Nb TD4, secreted His6-tagged VHH-HlyA fusion (monovalent, purified) (VHH)
VHH: QVQLVDAGGGSVQAGGSLTLSCVASGAAYSTNLLGWFRQAPGKEREGVASIYRGNSATNYADSVKGRFTISQDKTKYTIYLQMNSLKPEDSAMYYCAHGTAPYWHTPIPTLSEDKYFYWGQGTQVTVSS
notes: VHH TD4, as the VHH of m3; No cleavage of the HlyA part or the His tag is described; the fusion was detected by anti-E-tag in ELISA; also called parental TD4; non-evolved TD4; source: E. coli HB2151 with pVDL9.3 (HlyBD) and a pEHLYA derivative, secreted, purified from culture medium (Talon resin)
As to B6, the Kd in experiment [4] amounted to 5.55 nM.

B7: Nb TD4^D116G, secreted His6-tagged VHH-HlyA fusion (monovalent, purified) (VHH)
VHH: QVQLVDAGGGSVQAGGSLTLSCVASGAAYSTNLLGWFRQAPGKEREGVASIYRGNSATNYADSVKGRFTISQDKTKYTIYLQMNSLKPEDSAMYYCAHGTAPYWHTPIPTLSEGKYFYWGQGTQVTVSS
notes: as the VHH of m7 with D116G; also called Nb D116G
With B7, the results for the Kd in experiment [3] and in experiment [4] were 397 nM and 137 nM, respectively.

B8: Nb TD4^D116G displayed on E. coli as a fusion to the outer membrane anchoring domain of intimin (VHH)
VHH: QVQLVDAGGGSVQAGGSLTLSCVASGAAYSTNLLGWFRQAPGKEREGVASIYRGNSATNYADSVKGRFTISQDKTKYTIYLQMNSLKPEDSAMYYCAHGTAPYWHTPIPTLSEGKYFYWGQGTQVTVSS
notes: as the VHH of m3 with D116G (CDR3); Evolved from TD4 by DIvERGE mutagenesis and MACS selection; also called Nb D116G; not shown: intimin outer membrane anchoring domain, N-terminal, kept
On to B8, for which the Kd in experiment [5] came to 17.9 nM; in experiment [2] it was 0.58 nM.
